Laboratory results reported in patent publication US20260209346A1 (LTZ THERAPEUTICS, published 2026).

What was measured:
[1] = target: T1, human CD79b recombinant protein (human, UniProt P40259 29-159); assay: BLI; antibody at 10 ug/ml captured on anti-human IgG Fc probes, hCD79b in solution; same value printed in the rows for 18.3 and 9.14 nM hCD79b
T1 construct: also called human CD79b ECD antigen; recombinant human CD79b ECD
T1 sequence: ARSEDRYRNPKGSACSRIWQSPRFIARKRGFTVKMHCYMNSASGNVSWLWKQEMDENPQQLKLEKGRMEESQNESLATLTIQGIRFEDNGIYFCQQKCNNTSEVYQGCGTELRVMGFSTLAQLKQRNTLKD
Method: (§1) Binding affinities of anti-CD79b antibodies to human CD79b recombinant proteins were tested by BLI. 10 ug/ml of anti-CD79b antibodies were captured by anti-human IgG Fc probes (Gator Bio Catalog #160024). […] Absolute kD was determined by applying a 1:1 binding model (Global Rmax unlinked).

[2] = target: T1, human CD79b recombinant protein; assay: BLI, antibody captured on anti-human IgG Fc probes, human CD79b in solution, 1:1 model
Method: as §1

[3] = target: T2, cynomolgus CD79b recombinant protein (cynomolgus); assay: ELISA; cynomolgus CD79b recombinant protein coated at 1 ug/ml; anti-human IgG HRP; OD 450 nm
T2 chain: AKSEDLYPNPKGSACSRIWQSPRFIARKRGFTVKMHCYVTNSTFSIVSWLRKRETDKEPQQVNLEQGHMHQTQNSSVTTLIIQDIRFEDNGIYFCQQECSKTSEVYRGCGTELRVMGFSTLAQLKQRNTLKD
Method: (§2) Binding affinities of anti-CD79b antibodies to human and cynomolgus CD79b recombinant proteins were tested by ELISA. 1 ug/ml (in PBS buffer) of human or cynomolgus CD79b recombinant proteins were coated on an ELISA plate overnight. ELISA plates were washed and blocked with blocking buffer (PBS+1% BSA) followed by incubation with serially diluted anti-CD79b primary antibodies. Anti-CD79b antibody binding was quantified using an anti-human IgG HRP secondary antibody (Biolegend Catalog #410902) and HRP substrate.

[4] = target: T3, CD79b endogenously expressed on the cell surface (malignant B cell lines, normal B cells in PBMC, CLL … (human, UniProt P40259 29-229)); assay: flow cytometry on Nalm-6 cells; anti-human IgG1-PE; MFI (PE); table under the graph; fit of a flat curve, far above the highest concentration of 40 nM
T3 construct: whole, on cells; On cells CD79b stands in the B-cell receptor complex with CD79a and surface Ig; also called cell surface CD79b; endogenous CD79b
T3 sequence (looked up): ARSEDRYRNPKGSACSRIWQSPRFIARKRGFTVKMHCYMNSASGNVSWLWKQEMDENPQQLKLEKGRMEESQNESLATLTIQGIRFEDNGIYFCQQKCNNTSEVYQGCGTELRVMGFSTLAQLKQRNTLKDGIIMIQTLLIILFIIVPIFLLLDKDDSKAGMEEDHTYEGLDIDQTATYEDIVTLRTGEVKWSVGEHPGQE
Method: (§3) The binding affinities of anti-CD79b antibodies to malignant B cell lines were tested. […] The cells were then incubated with 100 μl anti-human IgG1-PE (Invitrogen, cat: 12-4998-82), 1:1000 dilution, for 30 min on ice, washed with 200 ul PBS for three times before flow cytometry analysis.

[5] = target: T1, human CD79b recombinant protein; assay: ELISA, coated human CD79b recombinant protein
Method: as §2

[6] = target: T3, CD79b endogenously expressed on the …; assay: flow cytometry on Ramos cells; anti-human IgG1-PE; MFI (PE); table under the graph; curve reaches only about 0.3x10^5 at 40 nM
Method: as §3

[7] = target: T3, CD79b endogenously expressed on the …; assay: flow cytometry on BJAB cells; anti-human IgG1-PE; MFI (PE); table under the graph; plateau only about 1.1x10^5 against about 6x10^5 for the others
Method: as §3

[8] = target: T3, CD79b endogenously expressed on the …; assay: flow cytometry on Daudi cells; anti-human IgG1-PE; MFI (PE); table under the graph; curve reaches only about 0.2x10^5 at 40 nM
Method: as §3

B1: ch29C3 (antibody, human IgG1, kappa, V domains shown)
VH: QSVKESGGGLFKPTDTLTLTCTVSGIDLNNYAMNWVRQAPGKGLDWIGLIGASGSTYYADWAKGRFTISKTSTTVDLKMTSLTTEDTATYFCAIGISATAHTSNIWGPGTLVAVSL
VL: ALVMTQTPSSVSAAVGGTVTINCQASQNIDSNLAWYQQKPGQPPKLLIYDASALASGVPSRFKGSGSGTEYTLTISGVEPDDAATYYCQQDDSSSNVDNPFGGGTEVVVKR
notes: Rabbit/human chimeric IgG1 kappa; also called chimeric 29C3
[1]
  koff: 0.000168 s⁻¹
  kon: 353000 M⁻¹ s⁻¹
[2]
  Kd: 0.476 nM
[3]
  binding result: no binding (tested: about 13 nM)
[4]
  EC50: 508 nM
[5]
  IC50: 0.17 nM
[6]
  EC50: 11.3 nM
[7]
  EC50: 0.99 nM
[8]
  EC50: 14.2 nM
